Seven molecules from patent US20220098307A1 (WUHAN YZY BIOPHARMA, published 2022) can be followed below.

Where a chain is given by its changes, count along the chain named. In names and notes the source's numbering stands.

T1: human CEA (human, UniProt P06731 35-685)
T1 sequence: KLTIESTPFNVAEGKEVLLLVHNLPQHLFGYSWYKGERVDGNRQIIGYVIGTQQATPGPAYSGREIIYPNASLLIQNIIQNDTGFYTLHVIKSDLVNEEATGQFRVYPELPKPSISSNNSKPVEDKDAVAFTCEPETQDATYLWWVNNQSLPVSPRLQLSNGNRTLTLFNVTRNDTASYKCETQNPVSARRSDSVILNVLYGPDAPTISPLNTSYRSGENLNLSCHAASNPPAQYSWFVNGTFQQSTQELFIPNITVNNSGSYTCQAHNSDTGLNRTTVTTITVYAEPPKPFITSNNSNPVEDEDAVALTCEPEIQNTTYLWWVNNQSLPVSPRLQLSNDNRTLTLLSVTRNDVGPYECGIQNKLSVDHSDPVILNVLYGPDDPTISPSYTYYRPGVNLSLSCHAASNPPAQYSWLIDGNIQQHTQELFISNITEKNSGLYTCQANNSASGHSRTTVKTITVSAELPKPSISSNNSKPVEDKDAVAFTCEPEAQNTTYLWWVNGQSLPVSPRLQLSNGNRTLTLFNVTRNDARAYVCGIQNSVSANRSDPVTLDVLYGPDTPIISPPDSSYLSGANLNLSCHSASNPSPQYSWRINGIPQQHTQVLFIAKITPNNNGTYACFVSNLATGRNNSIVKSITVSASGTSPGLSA

T2: Human BCMA (human, UniProt Q02223 1-54)
T2 sequence: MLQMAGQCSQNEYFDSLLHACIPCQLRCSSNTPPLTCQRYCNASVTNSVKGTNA

B1: BCMA-M2-SG2 (bispecific antibody, human IgG1, kappa)
chain: QLQLQESGPGLVKPSETLSLTCTVSGGSISSGSYFWGWIRQPPGKGLEWIGSIYYSGITYYNPSLKSRVTISVDTSKNQFSLKLSSVTAADTAVYYCARHDGAVAGLFDYWGQGTLVTVSSASTKGPSVFPLAPSSKSTSGGTAALGCLVKDYFPEPVTVSWNSGALTSGVHTFPAVLQSSGLYSLSSVVTVPSSSLGTQTYICNVNHKPSNTKVDKKVEPKSCDKTHTGGGSAAAQVQLVESGGGVVQPGRSLRLSCAASGFTFSTYAMNWVRQAPGKGLEWVARIRSKYNNYATYYADSVKDRFTISRDDSKNTLYLQMNSLRAEDTAVYYCARHGNFGNSYVSWFAYWGQGTLVTVSSGGGGSGGGGSGGGGSQTVVTQEPSLTVSPGGTVTLTCRSSTGAVTTSNYANWVQQKPGQAPRGLIGGTNKRAPGVPARFSGSLLGGKAALTLSGVQPEDEAEYYCALWYSNLWVFGGGTKVEIKGGGGSDKTHTCPPSPAPPVAGPSVFLFPPKPKDTLMISRTPEVTCVVVDVSHEDPEVQFNWYVDGVEVHNAKTKPREEQFNSTFRVVSVLTVVHQDWLNGKEYKCKVSNKGLPAPIEKTISKTKGQPREPQVYTLPPCRDELTKNQVSLWCLVKGFYPSDIAVEWESNGQPENNYKTTPPVLDSDGSFFLYSKLTVDKSRWQQGNVFSCSVMHEALHNHYTQKSLSLSPGK
heavy: QLQLQESGPGLVKPSETLSLTCTVSGGSISSGSYFWGWIRQPPGKGLEWIGSIYYSGITYYNPSLKSRVTISVDTSKNQFSLKLSSVTAADTAVYYCARHDGAVAGLFDYWGQGTLVTVSSASTKGPSVFPLAPSSKSTSGGTAALGCLVKDYFPEPVTVSWNSGALTSGVHTFPAVLQSSGLYSLSSVVTVPSSSLGTQTYICNVNHKPSNTKVDKKVEPKSCDKTHTCPPSPAPPVAGPSVFLFPPKPKDTLMISRTPEVTCVVVDVSHEDPEVQFNWYVDGVEVHNAKTKPREEQFNSTFRVVSVLTVVHQDWLNGKEYKCKVSNKGLPAPIEKTISKTKGQPREPQVCTLPPSRDELTKNQVSLSCAVKGFYPSDIAVEWESNGQPENNYKTTPPVLDSDGSFFLVSKLTVDKSRWQQGNVFSCSVMHEALHNRFTQKSLSLSPGK
light: SYVLTQPPSVSVAPGQTARITCGGNNIGSKSVHWYQQPPGQAPVVVVYDDSDRPSGIPERFSGNSNGNTATLTISRVEAGDEAVYYCQVWDSSSDHVVFGGGTKLTVLRTVAAPSVFIFPPSDEQLKSGTASVVCLLNNFYPREAKVQWKVDNALQSGNSQESVTEQDSKDSTYSLSSTLTLSKADYEKHKVYACEVTHQGLSSPVTKSFNRGEC
notes: structure 2; BCMA x CD3; CH2 SG2CH2
B2: CEA-M3-WT (bispecific antibody)
fusion heavy: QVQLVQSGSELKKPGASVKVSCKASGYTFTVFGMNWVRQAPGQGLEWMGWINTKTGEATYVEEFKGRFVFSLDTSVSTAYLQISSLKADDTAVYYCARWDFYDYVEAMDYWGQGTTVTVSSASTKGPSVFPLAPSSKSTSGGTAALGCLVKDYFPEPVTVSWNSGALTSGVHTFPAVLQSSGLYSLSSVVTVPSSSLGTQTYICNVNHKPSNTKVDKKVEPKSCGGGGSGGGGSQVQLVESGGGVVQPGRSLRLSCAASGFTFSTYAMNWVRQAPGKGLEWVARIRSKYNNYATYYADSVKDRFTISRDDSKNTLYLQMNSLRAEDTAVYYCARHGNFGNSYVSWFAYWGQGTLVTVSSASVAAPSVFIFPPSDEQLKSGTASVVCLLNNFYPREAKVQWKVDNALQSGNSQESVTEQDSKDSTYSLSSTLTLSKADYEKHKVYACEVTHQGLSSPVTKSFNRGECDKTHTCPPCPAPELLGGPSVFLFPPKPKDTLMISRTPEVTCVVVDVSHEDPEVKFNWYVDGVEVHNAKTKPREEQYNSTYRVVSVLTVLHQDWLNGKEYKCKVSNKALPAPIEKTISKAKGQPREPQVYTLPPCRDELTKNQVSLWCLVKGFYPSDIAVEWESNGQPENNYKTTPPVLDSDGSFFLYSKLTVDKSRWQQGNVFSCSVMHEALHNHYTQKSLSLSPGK
cross light: QTVVTQEPSLTVSPGGTVTLTCRSSTGAVTTSNYANWVQQKPGQAPRGLIGGTNKRAPGVPARFSGSLLGGKAALTLSGVQPEDEAEYYCALWYSNLWVFGGGTKVEIKSSASTKGPSVFPLAPSSKSTSGGTAALGCLVKDYFPEPVTVSWNSGALTSGVHTFPAVLQSSGLYSLSSVVTVPSSSLGTQTYICNVNHKPSNTKVDKKVEPKSC
heavy: QVQLVQSGSELKKPGASVKVSCKASGYTFTVFGMNWVRQAPGQGLEWMGWINTKTGEATYVEEFKGRFVFSLDTSVSTAYLQISSLKADDTAVYYCARWDFYDYVEAMDYWGQGTTVTVSSASTKGPSVFPLAPSSKSTSGGTAALGCLVKDYFPEPVTVSWNSGALTSGVHTFPAVLQSSGLYSLSSVVTVPSSSLGTQTYICNVNHKPSNTKVDKKVEPKSCDKTHTCPPCPAPELLGGPSVFLFPPKPKDTLMISRTPEVTCVVVDVSHEDPEVKFNWYVDGVEVHNAKTKPREEQYNSTYRVVSVLTVLHQDWLNGKEYKCKVSNKALPAPIEKTISKAKGQPREPQVCTLPPSRDELTKNQVSLSCAVKGFYPSDIAVEWESNGQPENNYKTTPPVLDSDGSFFLVSKLTVDKSRWQQGNVFSCSVMHEALHNRFTQKSLSLSPGK
light: DIQMTQSPSSLSASVGDRVTITCKASQNVGTNVAWYQQKPGKAPKLLIYSASYRYSGVPSRFSGSGSGTDFTFTISSLQPEDIATYYCHQYYTYPLFTFGQGTKVEIKRTVAAPSVFIFPPSDEQLKSGTASVVCLLNNFYPREAKVQWKVDNALQSGNSQESVTEQDSKDSTYSLSSTLTLSKADYEKHKVYACEVTHQGLSSPVTKSFNRGEC
notes: structure 3; CEA x CD3; CH2 WT; copies: 1 + 1 + 1 + 2
B3: M3IC-WT (bispecific antibody)
fusion heavy: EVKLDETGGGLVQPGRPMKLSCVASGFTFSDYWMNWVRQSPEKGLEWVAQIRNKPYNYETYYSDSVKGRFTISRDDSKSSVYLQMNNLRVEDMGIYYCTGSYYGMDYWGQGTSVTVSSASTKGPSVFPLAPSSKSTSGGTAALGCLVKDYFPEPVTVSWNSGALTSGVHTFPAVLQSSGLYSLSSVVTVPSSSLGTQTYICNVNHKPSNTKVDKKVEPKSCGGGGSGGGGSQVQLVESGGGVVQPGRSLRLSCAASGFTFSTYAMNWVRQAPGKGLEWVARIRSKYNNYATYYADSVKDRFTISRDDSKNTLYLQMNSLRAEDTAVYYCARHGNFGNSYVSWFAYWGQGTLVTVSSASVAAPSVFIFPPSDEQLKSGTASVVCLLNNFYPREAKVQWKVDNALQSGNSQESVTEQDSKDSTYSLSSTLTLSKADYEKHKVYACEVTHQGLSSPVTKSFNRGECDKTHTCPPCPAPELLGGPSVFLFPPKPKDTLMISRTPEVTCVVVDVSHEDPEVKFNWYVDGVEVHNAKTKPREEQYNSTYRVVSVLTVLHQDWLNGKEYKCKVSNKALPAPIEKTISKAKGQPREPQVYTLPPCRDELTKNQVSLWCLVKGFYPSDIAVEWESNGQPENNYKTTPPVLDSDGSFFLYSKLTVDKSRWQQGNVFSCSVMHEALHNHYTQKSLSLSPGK
cross light: B2 cross light
heavy: EVKLDETGGGLVQPGRPMKLSCVASGFTFSDYWMNWVRQSPEKGLEWVAQIRNKPYNYETYYSDSVKGRFTISRDDSKSSVYLQMNNLRVEDMGIYYCTGSYYGMDYWGQGTSVTVSSASTKGPSVFPLAPSSKSTSGGTAALGCLVKDYFPEPVTVSWNSGALTSGVHTFPAVLQSSGLYSLSSVVTVPSSSLGTQTYICNVNHKPSNTKVDKKVEPKSCDKTHTCPPCPAPELLGGPSVFLFPPKPKDTLMISRTPEVTCVVVDVSHEDPEVKFNWYVDGVEVHNAKTKPREEQYNSTYRVVSVLTVLHQDWLNGKEYKCKVSNKALPAPIEKTISKAKGQPREPQVCTLPPSRDELTKNQVSLSCAVKGFYPSDIAVEWESNGQPENNYKTTPPVLDSDGSFFLVSKLTVDKSRWQQGNVFSCSVMHEALHNRFTQKSLSLSPGK
light: DVVMTQTPLSLPVSLGDQASISCRSSQSLVHSNGNTYLRWYLQKPGQSPKVLIYKVSNRFSGVPDRFSGSGSGTDFTLKISRVEAEDLGVYFCSQSTHVPWTFGGGTKLEIKRTVAAPSVFIFPPSDEQLKSGTASVVCLLNNFYPREAKVQWKVDNALQSGNSQESVTEQDSKDSTYSLSSTLTLSKADYEKHKVYACEVTHQGLSSPVTKSFNRGEC
notes: structure 3 isotype control; CH2 WT; copies: 1 + 1 + 1 + 2
B4: CEA-M3-FES (bispecific antibody, human IgG1, kappa)
fusion heavy: QVQLVQSGSELKKPGASVKVSCKASGYTFTVFGMNWVRQAPGQGLEWMGWINTKTGEATYVEEFKGRFVFSLDTSVSTAYLQISSLKADDTAVYYCARWDFYDYVEAMDYWGQGTTVTVSSASTKGPSVFPLAPSSKSTSGGTAALGCLVKDYFPEPVTVSWNSGALTSGVHTFPAVLQSSGLYSLSSVVTVPSSSLGTQTYICNVNHKPSNTKVDKKVEPKSCGGGGSGGGGSQVQLVESGGGVVQPGRSLRLSCAASGFTFSTYAMNWVRQAPGKGLEWVARIRSKYNNYATYYADSVKDRFTISRDDSKNTLYLQMNSLRAEDTAVYYCARHGNFGNSYVSWFAYWGQGTLVTVSSASVAAPSVFIFPPSDEQLKSGTASVVCLLNNFYPREAKVQWKVDNALQSGNSQESVTEQDSKDSTYSLSSTLTLSKADYEKHKVYACEVTHQGLSSPVTKSFNRGECDKTHTCPPCPAPEFEGGPSVFLFPPKPKDTLMISRTPEVTCVVVDVSHEDPEVKFNWYVDGVEVHNAKTKPREEQYNSTYRVVSVLTVLHQDWLNGKEYKCKVSNKALPASIEKTISKAKGQPREPQVYTLPPCRDELTKNQVSLWCLVKGFYPSDIAVEWESNGQPENNYKTTPPVLDSDGSFFLYSKLTVDKSRWQQGNVFSCSVMHEALHNHYTQKSLSLSPGK
cross light: B2 cross light
heavy: B2 heavy with L238F, L239E, P335S
light: B2 light
notes: structure 3; CEA x CD3; CH2 FES; copies: 1 + 1 + 1 + 2
B5: M3IC-AAG (bispecific antibody)
fusion heavy: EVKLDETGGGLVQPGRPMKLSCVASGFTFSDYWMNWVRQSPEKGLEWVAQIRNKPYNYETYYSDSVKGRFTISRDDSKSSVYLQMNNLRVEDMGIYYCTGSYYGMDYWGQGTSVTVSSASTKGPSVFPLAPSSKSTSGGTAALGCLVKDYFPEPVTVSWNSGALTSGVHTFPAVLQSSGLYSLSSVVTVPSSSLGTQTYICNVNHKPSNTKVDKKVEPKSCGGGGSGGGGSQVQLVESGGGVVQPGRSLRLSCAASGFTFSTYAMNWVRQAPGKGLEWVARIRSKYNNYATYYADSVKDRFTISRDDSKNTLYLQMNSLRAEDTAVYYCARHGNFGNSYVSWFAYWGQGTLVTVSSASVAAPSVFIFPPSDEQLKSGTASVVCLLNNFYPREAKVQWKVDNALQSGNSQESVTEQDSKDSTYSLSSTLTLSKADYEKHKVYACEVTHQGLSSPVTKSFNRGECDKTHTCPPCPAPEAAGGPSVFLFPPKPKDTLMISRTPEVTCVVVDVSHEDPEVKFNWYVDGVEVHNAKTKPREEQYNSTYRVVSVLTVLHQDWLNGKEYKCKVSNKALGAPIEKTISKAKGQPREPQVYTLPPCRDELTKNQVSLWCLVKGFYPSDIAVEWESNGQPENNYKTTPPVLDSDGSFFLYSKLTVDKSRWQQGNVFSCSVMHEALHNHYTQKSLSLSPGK
cross light: B2 cross light
heavy: B3 heavy with L235A, L236A, P330G
light: B3 light
notes: structure 3 isotype control; CH2 AAG; copies: 1 + 1 + 1 + 2
B6: CEA-M3-NA (bispecific antibody, human IgG1, kappa, N297A)
fusion heavy: B4 fusion heavy with F480L, E481L, N543A, S577P
cross light: B2 cross light
heavy: B2 heavy with N301A
light: B2 light
notes: structure 3; CEA x CD3; CH2 N297A; copies: 1 + 1 + 1 + 2
B7: CEA-M3-AAG (bispecific antibody)
fusion heavy: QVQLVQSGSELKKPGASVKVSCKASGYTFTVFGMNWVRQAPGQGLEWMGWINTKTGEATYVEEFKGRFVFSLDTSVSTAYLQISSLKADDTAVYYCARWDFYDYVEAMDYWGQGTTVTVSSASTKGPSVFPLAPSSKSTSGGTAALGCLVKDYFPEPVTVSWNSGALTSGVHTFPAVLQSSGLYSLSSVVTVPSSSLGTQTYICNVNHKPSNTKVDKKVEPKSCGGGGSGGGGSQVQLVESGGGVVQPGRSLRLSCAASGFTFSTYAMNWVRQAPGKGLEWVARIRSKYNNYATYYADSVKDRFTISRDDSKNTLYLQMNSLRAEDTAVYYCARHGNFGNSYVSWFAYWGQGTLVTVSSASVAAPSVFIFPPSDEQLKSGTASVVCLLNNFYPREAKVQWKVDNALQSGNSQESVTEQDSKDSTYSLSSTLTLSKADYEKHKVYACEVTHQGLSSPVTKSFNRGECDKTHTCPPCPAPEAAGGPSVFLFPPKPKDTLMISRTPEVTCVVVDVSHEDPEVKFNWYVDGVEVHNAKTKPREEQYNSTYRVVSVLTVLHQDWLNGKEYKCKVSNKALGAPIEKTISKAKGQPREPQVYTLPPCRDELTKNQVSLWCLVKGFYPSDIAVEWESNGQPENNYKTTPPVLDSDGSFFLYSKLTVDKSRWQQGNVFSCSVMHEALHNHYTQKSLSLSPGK
cross light: B2 cross light
heavy: B2 heavy with L238A, L239A, P333G
light: B2 light
notes: structure 3; CEA x CD3; CH2 AAG; copies: 1 + 1 + 1 + 2

In the first assay the target is T3, Monkey CD3 (monkey).
T3 construct: whole, on cells; also called CD3 of monkey CD3 positive T cells
Kind of assay: flow cytometry, monkey T cells.
With B1, it took 461 nM to reach a half-maximal effect (EC50).

Another assay has as its target T4, Human CD3ε (human, UniProt P07766 23-126).
T4 construct: CD3 on T cells isolated from human whole blood
Description: flow cytometry, human T cells. The procedure, abridged: (§1)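 Cell binding by flow cytometry: antigen-positive tumor cells (e.g. MM.1S or RPMI 8226 for CD38) or CD3+ T cells, 2×10⁵/well, with antibody 3-fold diluted over 11 points from 3000 nM, 2 h at 4° C with shaking.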
B1: the EC50 amounted to 400 nM.

Take B2: the concentration giving a half-maximal response (EC50) was found to be 624 nM.

The molecule B3 yielded a 50% effective concentration (EC50) of 637 nM.

B4 yielded an EC50 of 639 nM.

With B5, the half-maximal effective concentration (EC50) is 606 nM.

Molecule B6 came in with a concentration for a half-maximal effect (EC50) of 688 nM.

B7 came in with an EC50 of 646 nM.

A further assay deals with T3, Monkey CD3. Description: flow cytometry, monkey T cells. This is another data set of the same source.
As for B2, the EC50 worked out at 757 nM.

Molecule B3 returned an EC50 of 709 nM.

As to B4, the EC50 stood at 732 nM.

The molecule B5 registered a concentration giving a half-maximal response (EC50) of 659 nM.

As for B6, the concentration for a half-maximal effect (EC50) is 798 nM.

B7 displayed an EC50 of 662 nM.

Another assay deals with T1, human CEA. Kind of assay: flow cytometry, human tumor cells (table of the CEA series). An outline of the steps: as §1
B3: the binding result was “no binding”.

In the case of B5, the binding result is on record as “no binding”.

The target of another assay is T1, human CEA. Description: flow cytometry, human tumor cells (CEA+). The procedure, abridged: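 For cell-surface binding, T cells served for the CD3 arm and antigen-positive tumor cells (e.g. MM.1S or RPMI 8226 for CD38) for the tumor arm.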
With B2, the EC50 is 35.8 nM.

In the case of B4, the half-maximal effective concentration (EC50) was determined as 42.9 nM.

The molecule B6 showed an EC50 of 32.1 nM.

In turn, B7 had an EC50 of 30.1 nM.

For a further assay, the target named is T2, Human BCMA. Description: flow cytometry, human tumor cells (BCMA+). The procedure, abridged: as §1
Consider B1, for which the response was half-maximal at 17 nM (EC50).
